# Test results: patent US20250313626A1 (HARBOUR BIOMED SHANGHAI, published 2025)
# Read-outs that look alike come from different tables or passages of the source.
# T1: CD200R1a on PathHunter Jurkat CD200R1a signaling cells (Eurofins DiscoverX, 93-1136C19) (human, UniProt Q8TD46 25-348)
# T1 sequence: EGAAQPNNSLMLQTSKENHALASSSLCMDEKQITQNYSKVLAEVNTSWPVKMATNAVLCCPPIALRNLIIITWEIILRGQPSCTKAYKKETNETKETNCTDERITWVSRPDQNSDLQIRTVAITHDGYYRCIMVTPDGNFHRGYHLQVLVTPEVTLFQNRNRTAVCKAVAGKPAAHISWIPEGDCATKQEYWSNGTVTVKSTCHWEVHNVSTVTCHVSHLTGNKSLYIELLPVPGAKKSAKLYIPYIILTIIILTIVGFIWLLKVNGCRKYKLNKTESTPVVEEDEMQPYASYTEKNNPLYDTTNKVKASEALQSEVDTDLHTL
# T2: Mouse CD200R1-His (mouse, UniProt Q9ES57 26-238, limits assumed)
# T2 sequence (looked up): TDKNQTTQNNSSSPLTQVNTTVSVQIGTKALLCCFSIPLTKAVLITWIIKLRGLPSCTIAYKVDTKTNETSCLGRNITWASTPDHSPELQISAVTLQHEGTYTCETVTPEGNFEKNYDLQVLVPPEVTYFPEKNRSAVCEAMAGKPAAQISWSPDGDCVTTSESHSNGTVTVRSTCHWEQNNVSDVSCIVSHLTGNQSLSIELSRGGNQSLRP
# T3: human CD200R1a protein (soluble recombinant) (human, UniProt Q8TD46 29-265)
# T3 construct: Soluble protein used in BLI; also called human CD200R1 isoform a; not shown: His tag implied by capture on anti-Penta-HIS biosensors
# T3 sequence: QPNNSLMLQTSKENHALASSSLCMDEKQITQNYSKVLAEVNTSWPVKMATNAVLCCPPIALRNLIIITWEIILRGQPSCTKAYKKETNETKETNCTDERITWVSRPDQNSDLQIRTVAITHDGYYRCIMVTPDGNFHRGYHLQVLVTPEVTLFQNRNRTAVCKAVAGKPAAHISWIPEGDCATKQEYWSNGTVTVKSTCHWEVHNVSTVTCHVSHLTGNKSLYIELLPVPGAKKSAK
# T4: human CD200R1 isoform a on CHOK1 cells (CHOK1/hCD200R1a) (human, UniProt Q8TD46 25-348)
# T4 construct: also called CHOK1/CD200R1a
# T4 sequence: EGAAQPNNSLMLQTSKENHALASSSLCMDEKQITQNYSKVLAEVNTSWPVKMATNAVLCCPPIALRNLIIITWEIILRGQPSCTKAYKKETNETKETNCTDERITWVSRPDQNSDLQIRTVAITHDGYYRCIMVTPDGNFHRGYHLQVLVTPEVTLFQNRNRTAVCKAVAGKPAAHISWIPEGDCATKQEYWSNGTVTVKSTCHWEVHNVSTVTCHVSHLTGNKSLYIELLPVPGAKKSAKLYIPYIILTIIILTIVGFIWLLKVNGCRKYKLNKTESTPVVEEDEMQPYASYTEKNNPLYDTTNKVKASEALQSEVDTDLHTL
# T5: Cynomolgus macaques CD200R1 isoform a on CHOK1 cells (CHOK1/cynoCD200R1a) (Cynomolgus macaques)
# T5 chain: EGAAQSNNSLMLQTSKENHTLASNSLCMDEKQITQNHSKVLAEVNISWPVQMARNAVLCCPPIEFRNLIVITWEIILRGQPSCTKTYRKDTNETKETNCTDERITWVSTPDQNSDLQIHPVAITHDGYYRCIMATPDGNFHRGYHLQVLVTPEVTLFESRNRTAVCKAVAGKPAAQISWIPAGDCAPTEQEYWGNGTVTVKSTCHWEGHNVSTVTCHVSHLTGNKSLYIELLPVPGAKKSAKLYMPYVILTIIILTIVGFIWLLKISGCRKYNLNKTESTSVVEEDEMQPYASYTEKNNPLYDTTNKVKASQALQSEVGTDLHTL
# B1: PR006475 (antibody, human IgG1, kappa, L234A L235A, V domains shown)
# VH: QVQLQESGPGLVKPSGTLSLTCAVSGASISSGHWWSWVRQPPGKGLEWIGEIYHSGSTNYTPSLKSRVTISVDKSKNQFSLKLTSVTAADTAVYYCAREASYHYGSGSYYTPFDFWGQGTLVTVSS
# VL: EIVLTQSPATLSVSPGERATLSCRASQSVSSNLAWYQQKPGQAPRLLIYGASTRATGIPARFSGSGSGTEFTLTISSLQSEDFALYYCQQYNNWIIFGQGTRLEIKR
# B2: PR007630 (antibody, human IgG1, kappa, V domains shown)
# VH: QVQLVESGGGVVQPGRSLRLSCAASGFTFSSYGFHWVRQAPGKGLEWLGIIWSDASNKYYADSVKGRFTISRDNSKNTLYLQMNSLRAEDTAVYYCARDRIVGEGFDYWGQGTLVTVSS
# VL: DIVMTQSPLSLPVTPGEPASISCRSSQSLLHRSGYNYLDWYLQKPGQSPQLLIYLGSYRASGVPDRFSGSGSGTDFTLKISRVEAEDVGVYYCMQGLQTMYTFGQGTKLEIKR
# notes: PTM variant of PR006839 (human IgG1)
# B3: PR007631 (antibody, human IgG1, kappa, V domains shown)
# VH: QVQLVESGGGVVQPGRSLRLSCAASGFTFSSYGFHWVRQAPGKGLEWLGLIWSDARHKDYADSVKGRFTISRDNSKNTLYLQMNSLRAEDTAVYYCARDRIVGEGFDYWGQGTLVTVSS
# VL: DIVMTQSPLSLPVTPGEPASISCRSSQSLLHRSGYNYLDWYLQKPGQSPQLLIYLGSYRWSGVPDRFSGSGSGTDFTLKISRVEAEDVGVYYCMQGLQTMYTFGQGTKLEIKR
# notes: as for B2
# B4: PR007972 (antibody, human IgG1, kappa, V domains shown)
# VH: QVQLVESGGGVVQPGRSLRLSCAASGFTFSYYGFHWVRQAPGKGLEWLGIIWSDASNKYYADSVKGRFTISRDNSKNTLYLQMNSLRAEDTAVYYCARDRIVGEGFDYWGQGTLVTVSS
# VL: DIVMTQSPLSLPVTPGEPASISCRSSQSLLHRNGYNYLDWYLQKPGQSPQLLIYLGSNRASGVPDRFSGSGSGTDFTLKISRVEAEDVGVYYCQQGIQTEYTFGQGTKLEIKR
# notes: as for B2
# Tests used:
# [1] = biological target: T1, CD200R1a on PathHunter Jurkat CD200R1a …; assay: cell-based or functional assay
# Mouse CD200R1-His = biological target: T2, Mouse CD200R1-His; assay: BLI (Octet), antibody captured on anti-human Fc sensor
# Method: (§1) To determine the binding affinities of the anti-CD200R1 antibodies to CD200R1a proteins of various species (mouse, human, Cynomolgus macaques), bio-layer interferometry (BLI) assays were carried out using an Octet® RED96e instrument. Antibodies were produced as described in Example 3.4 and diluted to 5 μg/mL using freshly prepared 1× kinetic buffer (10× kinetic buffer (Catalog #18-1105, ForteBio) was diluted with PBS(Catalog #E607016-0500, BBI Life Sciences)) and were captured on the surface of anti-human Fc (AHC) Octet biosensors (Catalog #18-5060, ForteBio) to reach capture levels between 0.9-1.2 nm. The biosensors having the captured anti-CD200R1 antibodies were then dipped in wells containing 2-fold serial dilutions of CD200R1a proteins to detect association signals, followed by dissociation steps in wells containing 1× kinetic buffer. The sensorgrams were recorded and the reference signals were subtracted before curve fitting using ForteBio Data Analysis 11.0 software. Association rates (kₒₙ) and dissociation rates (koff) were calculated using a simple one-to-one Langmuir binding model. The equilibrium dissociation constant (KD) was calculated as the ratio of koff/kₒₙ.
# [2] = biological target: T3, human CD200R1a protein (soluble …); assay: BLI (Octet), antibody captured on anti-human Fc sensor, soluble CD200R1a as analyte, 1:1 fit
# Method: as §1
# [3] = biological target: T4, human CD200R1 isoform a on CHOK1 cells …; assay: flow cytometry, CHOK1/hCD200R1a cells; table beside the curves, head without unit, x axis Log [Ab] (nM)
# Method: (§2) This example is intended to investigate the in vitro binding activity of human anti-CD200R1 monoclonal antibodies to human/Cynomolgus macaques CD200R1a expressed on the surface of cells. The anti-CD200R1 antibodies were produced as described in Example 3.4 and the binding experiments at the cell level were performed using CHOK1/hCD200R1a and CHOK1-cynoCD200R1a.
# (§3) Briefly, CHOK1/hCD200R1a cells and CHOK1-cynoCD200R1a cells were digested, and collected, and then were resuspended in PBS containing 2% BSA, respectively. The cell density was adjusted to 1×10⁶ cells/mL. The cells were seeded in a 96-well V-bottom plate (Corning, #3894) at 100 μL/well, followed by the addition of test antibodies and reference antibodies in a series diluted concentration, each at 100 μL/well. The cells were incubated away from light at 4° C. for 1 h. Thereafter, the cells in each well were rinsed twice with 100 μL of pre-cooled PBS containing 2% BSA, and centrifuged at 500 g at 4° C. for 5 min, and then the supernatant was discarded. 100 μL of fluorescent secondary antibody (Alexa Fluor 488-conjugated AffiniPure Goat Anti-Human IgG, Fcγ Fragment Specific, Jackson, #109-545-098, diluted in a 1:1000 ratio) was added in each well, and the plate was incubated away from light at 4° C. for 1 h. The cells in each well were rinsed twice with 100 μL of pre-cooled PBS containing 2% BSA, and centrifuged at 500 g at 4° C. for 5 min, and then the supernatant was discarded. Finally, the cells in each well were resuspended in 200 μL of pre-cooled PBS containing 2% BSA, and the fluorescence signal values were read using a BD CantoII flow cytometer.
# [4] = biological target: T4, human CD200R1 isoform a on CHOK1 cells …; assay: flow cytometry blocking assay: antibody titrated against biotin-labelled human CD200 binding to CHOK1/hCD200R1a cells
# Method: To study the activity of human anti-CD200R1 antibodies in blocking the binding of human CD200 to its receptor CD200R1a in vitro, CHOK1/hCD200R1a was used to perform cell-level human CD200/human CD200R1a binding and blocking experiments.
# (§4) In brief, CHOK1/hCD200R1a cells were digested and resuspended in 2% BSA in PBS. […] The cells were placed at 4° C. and incubated for 1 hour in the dark. […] 100 μL/well of pre-cooled PBS containing 2% BSA was added to rinse the cells twice, centrifugation was performed at 500 g, 4° C. for 5 minutes, and the supernatant was discarded. Fluorescent secondary antibody (PE Streptavidin, BD, Cat #: 554061, 1:200) was added at 100 μL/well, and incubation was performed at 4° C. for 30 minutes in the dark. The cells were washed twice with 200 μL/well of pre-cooled PBS, and were centrifuged at 500 g, 4° C. for 5 minutes, and the supernatant was discarded. Finally, 200 μL/well of pre-cooled PBS was used to resuspend the cells, and the fluorescence signal values were read using ACEA Novocyte 3000 flow cytometer. IC50 values were calculated.
# [5] = biological target: T1, CD200R1a on PathHunter Jurkat CD200R1a …; assay: cell-based or functional assay; remark: listed apart in the source
# [6] = biological target: T4, human CD200R1 isoform a on CHOK1 cells …; assay: flow cytometry, CHOK1/hCD200R1a cells (FITC-Mean); table beside the curves
# Method: as §2, §3
# [7] = biological target: T5, Cynomolgus macaques CD200R1 isoform a …; assay: flow cytometry, CHOK1/cynoCD200R1a cells (APC-A Mean); table beside the curves
# [8] = biological target: T4, human CD200R1 isoform a on CHOK1 cells …; assay: flow cytometry blocking assay: biotin-labelled human CD200 binding to CHOK1/hCD200R1a cells; y axis Inhibition %
# Method: as §4
# [9] = biological target: T4, human CD200R1 isoform a on CHOK1 cells …; assay: flow cytometry, CHOK1/hCD200R1a cells (FITC-Mean); table beside the curves, head without unit, x axis Log [Ab] (nM)
# [10] = biological target: T4, human CD200R1 isoform a on CHOK1 cells …; assay: flow cytometry blocking assay: antibody titrated against biotin-labelled human CD200 binding to CHOK1/hCD200R1a cells; head prints EC50 without unit, x axis Log [Ab] (nM), y axis Inhibition %
# Method: as §4
# [11] = biological target: T1, CD200R1a on PathHunter Jurkat CD200R1a …; assay: cell-based or functional assay; remark: listed apart in the source
Binder,"IC50 of the inhibition of CD200-induced PathHunter Jurkat CD200R1a luminescence (CHOK1/hCD200 cells as CD200 source); head without unit, x axis Log [Ab] (nM) [1]",binding result (Mouse CD200R1-His),Kd [2],koff [2],kon [2],EC50 [3],Blocking (Max %) [4],IC50 [4],IC50 of the inhibition of CD200-induced PathHunter Jurkat CD200R1a luminescence (CHOK1/hCD200 cells as CD200 source) [5],MFI(Max) [6],EC50 [7],MFI (MAX) [7],Blocking(Max) [8],EC50 [9],EC50 [10],IC50 of the inhibition of CD200-induced PathHunter Jurkat CD200R1a luminescence (CHOK1/hCD200 cells as CD200 source) [11]
B1,10.6 nM,no binding,12.8 nM,0.000376 s⁻¹,29400 M⁻¹ s⁻¹,6.97 nM,110%,32.2 nM,–,–,–,–,–,–,–,–
B2,–,–,–,–,–,–,–,–,0.46 nM,18900,4.69 nM,58600,99.9%,0.313 nM,0.359 nM,–
B3,–,–,–,–,–,–,–,–,0.266 nM,19400,3.63 nM,51800,99.9%,0.311 nM,0.323 nM,–
B4,–,–,–,–,–,–,–,–,–,19000,4.48 nM,51200,99.9%,0.19 nM,0.158 nM,0.368 nM
